Data on one molecule can be found in patent publication US7208301B2, “Method for producing 6-0-α-D-glucopyranosyl-D-sorbitol” (Südzucker Aktiengesellschaft Mannheim/Ochsenfurt, priority 1999, dated 2007).

This series in a line: Storage stability of purified SDH. In kind it is physicochemical. As for the experimental part: In another preferred embodiment the temperature of the aqueous reaction solution is 20° C. to 40° C., especially 25° C., in the enzymatic conversion. At temperatures of 25° C. the purified SDH has stability of about a week. Thus, temperatures in this range are well-suited for conducting long-term enzyme-catalyzed processes.
The purified SDH can be stored for about 8 months at −30° C. and the SDH is stable for about 30 days at +4° C.

B1: SDH: sorbitol dehydrogenase of Gluconobacter suboxidans DSM 2003, 262 amino acids (SEQ ID No. 1), purified per Example 1 (protein)
chain: MSKKFNGKVCLVTGAGGNIGLATALRLAEEGTAIALLDMNREALEKAEASVREKGVEARSYVCDVTSEEAVIGTVDSVVRDFGKIDFLFNNAGYQGAFAPVQDYPSDDFARVLTINVTGAFHVLKAVSRQMITQNYGRIVNTASMAGVKGPPNMAAYGASKGAIIALTETAALDLAPYNIRVNAISPGYMGPGFMWERQVELQAKVGSQYFSTDPKVVAQQMIGSVPMRRYGDINEIPGVVAFLLGDDSSFMTGVNLPIAGG
modifications: Gluconobacter suboxydans
In the case of B1, for the setting “at 25° C.”, the “stability of purified SDH” value is “about a week”. Where the note is “at +4° C.”, the “stability of SDH” value was “about 30 days”. Also, the “storage time of purified SDH” value (at −30° C.) is on record as “about 8 months”.
